Stoichiometry N data for 1 substance are collected here from paper PMC4231741.

This test has as its target MspJI wild type (modification-dependent restriction endonuclease). The test is described as follows: crystal structure.

What is called stoichiometry N is the number of molecules, sites or subunits per partner or assembly. Regarding “MspJI wild type (modification-dependent restriction endonuclease) (enzyme)”, the stoichiometry N was found to be 4.
